In the supplement of paper PMC10201428:
± gives the standard deviation of the averaged measurements.

B1: library; a variant is named by its letters at N, in order (parent)
chain: ACATTTGTTGATACAACCATAAAATGATAATTACACCCATAAATTGATAATTATCACACCCANNNNNNNNNNNNNNCTCTGATCATAGTCAGACCAACATTGCTACGACCCGTATTCGCACCGACAC

Columns and labels:
[1] = variants of: B1; experiment: relative integration efficiency (T-RL orientation) vs wild-type transposon end (log2 (normalized fold change)); transposon end mutated: right end (5 bp flank + 75 bp right end); higher = more efficient transposition; conditions: with VchCAST RNA-guided transposition machinery (E. coli BL21(DE3) host, lacZ target)
Description: (§1)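 Pooled, barcoded VchCAST (Tn6677) mini-transposon donor libraries; each variable transposon-end sequence sits in a fixed pDonor mini-transposon context (10-bp barcode and cargo not included). Left- or right-end libraries were co-transformed with pEffector (TniQ-Cascade, TnsABC, lacZ crRNA, T7, 0.1 mM IPTG) into E. coli BL21(DE3) and grown 18 h at 37 C. T-LR and T-RL junction amplicons were sequenced; output/input barcode fold change was normalised to the mean of four wild-type barcodes and log2-transformed. Two biological replicates; zero-count/undetected variants carry floor values (-10 / -15), censored here. Barcode uncoupling by PCR recombination adds noise.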

[2] = variants of: B1; experiment: relative integration efficiency (T-LR orientation) vs wild-type transposon end (log2 (normalized fold change)); transposon end mutated: right end (5 bp flank + 75 bp right end); higher = more efficient transposition; conditions: with VchCAST RNA-guided transposition machinery (E. coli BL21(DE3) host, lacZ target)
Description: as §1

Variant | relative integration efficiency (log2) [1] | relative integration efficiency (log2) [2]
ATTTAACTATAACG C57G | -0.953 ± 0.42 | 2.5 ± 0.16
ATTTAACTATAACG C57A | -0.68 ± 0.085 | 2.48 ± 0.17
TAAATTTCGCTTGC | -0.702 ± 0.069 | 2.429 ± 0.022
TAAATTGATATTGC T48G | -0.12 ± 0.078 | -0.379 ± 0.13
TAAATTGATATTGC T48A | 0.196 ± 0.2 | 0.629 ± 0.21
TAAATTGATATTGC T48C | -0.4021 ± 0.003 | -0.401 ± 0.25
TAAATTGATTTTGC | -0.0591 ± 0.014 | 0.338 ± 0.22
TATATTGATATTGC | 0.155 ± 0.039 | 0.337 ± 0.47
ATTTAACTATAACG C38A | -1.04 ± 0.17 | 2.02 ± 0.11
ATTTAACTATAACG C38G | -0.843 ± 0.15 | 2.06 ± 0.035
ATTTAACTATAACG C38T | -0.901 ± 0.15 | 2.05 ± 0.13
TAAGTTGATATTGC | -0.0544 ± 0.061 | 0.2 ± 0.074
ATTTAACTATAACG A21T | -0.978 ± 0.093 | 2 ± 0.062
ATTTAACTATAACG A21C | -1.05 ± 0.21 | 1.892 ± 0.013
ATTTAACTATAACG A50T | -1.29 ± 0.33 | 2.34 ± 0.11
ATTTAACTATAACG A50C | -1.36 ± 0.36 | 2.44 ± 0.1
ATTTAACTATAACG A50G | -1.62 ± 0.3 | 2.18 ± 0.28
TACCTTGAAATTGC C59A | -1.62 ± 0.24 | 1.94 ± 0.21
TAAATTGATCGGTC | -0.277 ± 0.017 | 1.42 ± 0.094
TAACGGTATATTGC | -0.559 ± 0.17 | 2.2 ± 0.3

Variant | relative integration efficiency (log2) [1] | relative integration efficiency (log2) [2]
TAAATTGATCTTGC | 0.011 ± 0.051 | 0.816 ± 0.13
ATTTAACTATAACG T48G | -1.18 ± 0.2 | 1.85 ± 0.083
ATTTAACTATAACG T48C | -1.24 ± 0.25 | 2.03 ± 0.086
TAAATTGATGTTGC | -0.0405 ± 0.033 | 0.475 ± 0.053
TTAATTGATATTGC | -0.072 ± 0.011 | 0.636 ± 0.14
ATTTAACTATAACG T28C | -1.29 ± 0.26 | 2.16 ± 0.037
ATTTAACTATAACG T28G | -1.52 ± 0.28 | 1.89 ± 0.21
TAATTTGATATTGC | 0.169 ± 0.039 | 0.241 ± 0.14
TAGATTGATATTGC | -0.557 ± 0.12 | 1.925 ± 0.0098
ATTTAACTATAACG T51C | -1.04 ± 0.24 | 2.48 ± 0.17
ATTTAACTATAACG T51A | -1.46 ± 0.28 | 2.29 ± 0.1
ATTTAACTATAACG T51G | -1.67 ± 0.15 | 2.1 ± 0.14
ATTTAACTATAACG T20A | -1.07 ± 0.11 | 2.04 ± 0.098
ATTTAACTATAACG T20C | -1.47 ± 0.3 | 1.3 ± 0.48
ATTTAACTATAACG T20G | -2 ± 0.4 | 0.721 ± 0.045
TAAATTGATTATGC | -0.138 ± 0.008 | 0.414 ± 0.43
TAAATTGTTATTGC | -0.347 ± 0.057 | 1.61 ± 0.16
TCCATTGATATTGC | -0.657 ± 0.14 | 2.16 ± 0.029
ATTTAACTATAACG C18G | -1.04 ± 0.083 | 1.98 ± 0.099
ATTTAACTATAACG C18T | -0.685 ± 0.013 | 2.16 ± 0.14

Variant | relative integration efficiency (log2) [1] | relative integration efficiency (log2) [2]
ATTTAACTATAACG C18A | -0.906 ± 0.082 | 2.01 ± 0.13
TAAATTGATATTGC T54G | 0.0616 ± 0.064 | 0.247 ± 0.082
TAAATTGATATTGC T54A | -0.338 ± 0.15 | 0.141 ± 0.18
TAAATTGATATTGC T54C | -0.0952 ± 0.0069 | -0.015 ± 0.36
TAAATTGTATATGC | -0.247 ± 0.1 | 0.948 ± 0.27
TAAATTGATATTGC T51G | -0.507 ± 0.097 | -0.118 ± 0.2
TAAATTGATATTGC T51C | 0.0252 ± 0.18 | 0.0609 ± 0.14
TAAATTGATATTGC T51A | -0.455 ± 0.07 | -0.206 ± 0.1
ATTTAACTATAACG G7C | -1.39 ± 0.16 | 1.24 ± 0.17
ATTTAACTATAACG T32G | -1.87 ± 0.28 | 2.2 ± 0.18
ATTTAACTATAACG T32A | -1.5 ± 0.28 | 2.13 ± 0.036
TATTAAGATATTGC | -0.535 ± 0.084 | 1.66 ± 0.11
TAAATTGATATTGC T44C | -0.0775 ± 0.082 | -0.274 ± 0.09
TAAATTGATATTGC T44A | 0.0685 ± 0.021 | -0.0417 ± 0.00085
TAAATTGATATTGC T44G | -0.00517 ± 0.11 | -0.385 ± 0.26
ATTTAACTATAACG A42T | -0.805 ± 0.085 | 2.24 ± 0.14
ATTTAACTATAACG A42C | -1.82 ± 0.3 | 1.03 ± 0.13
ATTTAACTATAACG A42G | -1.62 ± 0.22 | 1.19 ± 0.16
